The values that follow come from paper PMC11847324, “A communication hub for phosphoregulation of kinetochore-microtubule attachment” (Current biology : CB, 2024).

For assay [1], the target named is Bodipy-FL Mps1(137–171) (S. cerevisiae). In words: fluorescence polarisation; direct titration: 2-fold serial dilutions of Ndc80c^dwarf (from 860 uM stock) added to 20 nM (final) Bodipy-FL peptide; 20 mM Hepes pH 7.2, 150 mM NaCl, 2 mM TCEP; 25 °C; triplicate. Background: Polarisation of emitted light reports the rotation of a fluorescent probe.
Assay [2] relates to Ndc80c^dwarf. In words: Fluorescence polarization competition, reporter Bodipy-FL Mps1(137–171). The class given is binding, S. cerevisiae. The following applies: direct titration (Figure 3A) and competition with Bodipy-FL Mps1(137–171) (Figure 3B). An excerpt:
We measured by fluorescence polarization the affinity of Ndc80^dwarf, a shortened version of Ndc80c[51], for a peptide comprising Mps1 residues 137–171, plus a C-terminal cysteine for labeling. We labeled the peptide with the Bodipy fluorophore and determined fluorescence anisotropy as a function of Ndc80c^dwarf concentration (Figure 3A). We then used unlabeled wild-type and mutant peptides in a competition format, at a fixed Ndc80c^dwarf concentration (Figures 3B,C). The mutant peptides corresponded to mutations characterized in one of the accompanying papers. […] Mutating either the basic residues or the hydrophobic residues in the first part of the consensus motif or the conserved arginine at the end of the second part lowered affinity (raised the Ki) by roughly two logs; mutating both the final arginine and the hydrophobic residues eliminated any detectable competition.
Figure 3. Fluorescence polarization measurements of Ndc80c^dwarf binding peptides from the N-terminal extensions of Mps1 and Ipl1. (A) Polarization of fluorescence from 20 nM Bodipy-FL Mps1(137–171) (Mps1 residues 137–171 plus a C-terminal cysteine modified with Bodipy-FL -- see Methods) and Bodipy-FL Ipl1 (26–39;45–59) as a function of Ndc80c^dwarf concentration. (B) Competition binding experiment: unlabeled competitor peptides (see figure annotation) were added in twofold serial dilutions to Bodipy-FL Mps1(137–171) and Ndc80c^dwarf at final concentrations of 20 nM and 500 nM respectively. Loss of polarization indicates displacement of bound Bodipy-FL Mps1(137–171) by the competitor. (C) As in (B), with competitor Mps1(137–171) peptides containing mutations that reduce affinity for Ndc80c[40]. (D) Polarization of fluorescence from 20 nM Bodipy-FL Mps1(137–171) as a function of the concentration of Ndc80c^dwarf bearing mutations in Nuf2 that interfere with its Mps1 interaction in cells. (E) As in (B), but with 20 nM Bodipy-FL Ipl1 (26–39;45–59) as the fluorescent reporter and 27μM Ndc80c^dwarf. […] For the Ipl1 peptide, the second copy of the motif, not used for the fluorescence polarization experiments, is shown in the bottom line.
Mps1 (137–171), Ipl1 (26–39;45–59), and Dam1 (254–270;290–305) peptides with added C-terminal cysteines, were synthesized by the Tufts University Core Facility. […] Fluorescence polarization was measured at 25°C with an Envision plate reader (Perkin Elmer) equipped with a filter set optimized for fluorescence polarization of FITC, which has the same absorption and emission spectra as those of Bodipy FL. […] Fluorescence polarization was measured in triplicate. […] An equal volume of a buffer-matched solution containing 40 nM Bodipy-FL labelled peptide and 1 μM Ndc80c^dwarf was added to each of the dilutions, and fluorescence polarization was measured in triplicate. […]

Assay [3] addresses T1, Ndc80c^dwarf, P40460;Q04477;P40014.
T1 chain 1: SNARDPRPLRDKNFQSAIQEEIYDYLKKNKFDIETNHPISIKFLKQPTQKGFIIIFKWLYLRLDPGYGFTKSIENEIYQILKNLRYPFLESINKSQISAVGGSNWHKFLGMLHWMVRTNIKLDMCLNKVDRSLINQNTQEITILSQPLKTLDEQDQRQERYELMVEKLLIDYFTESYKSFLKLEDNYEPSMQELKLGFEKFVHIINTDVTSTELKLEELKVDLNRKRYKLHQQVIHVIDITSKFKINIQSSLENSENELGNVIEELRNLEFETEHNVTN
T1 chain 2: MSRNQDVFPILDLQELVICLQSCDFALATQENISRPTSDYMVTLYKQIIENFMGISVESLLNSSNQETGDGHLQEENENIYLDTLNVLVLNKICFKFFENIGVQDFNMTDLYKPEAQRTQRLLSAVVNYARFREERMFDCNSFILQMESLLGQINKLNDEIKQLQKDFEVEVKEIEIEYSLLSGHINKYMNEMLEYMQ
T1 chain 3: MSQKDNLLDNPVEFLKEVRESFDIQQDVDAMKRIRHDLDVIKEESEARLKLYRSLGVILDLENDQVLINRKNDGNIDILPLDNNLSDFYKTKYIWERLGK
T1 chain 4: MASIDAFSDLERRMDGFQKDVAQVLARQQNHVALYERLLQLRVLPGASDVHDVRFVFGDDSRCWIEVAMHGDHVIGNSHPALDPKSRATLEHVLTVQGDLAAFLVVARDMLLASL
In words: fluorescence polarization competition. The following applies: chain shown with the change; point at the highest competitor concentration (about 1e3 µM); 20 nM Bodipy-FL Mps1(137–171), 500 nM Ndc80c^dwarf; lower polarization = more displacement of the …; parent: est. 41; read off a plot.

The target in assay [4] is T2, Ndc80c^dwarf (S. cerevisiae, UniProt P40460 1-691; Q04477 1-213; P40014 1-221).
T2 chain 1: T1 chain 1
T2 chain 2: T1 chain 2
T2 chain 3: T1 chain 3
T2 chain 4: T1 chain 4
In words: fluorescence polarisation; competition: 2-fold serial dilutions of unlabeled peptide (2 mM stock) mixed with an equal volume giving 20 nM Bodipy-FL Mps1(137–171) and 500 nM Ndc80c^dwarf; 20 mM Tris pH 7.2, 100 mM NaCl, 2 mM TCEP; 25 °C; triplicate.

The target of assay [5] is T2, Ndc80c^dwarf. In words: FP.
The target in a further assay is T3, Bodipy-FL Mps1(137–171).
T3 chain: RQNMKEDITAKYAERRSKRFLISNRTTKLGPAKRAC
In words: fluorescence polarization. The following applies: chain shown with the change; 20 nM Bodipy-FL Mps1(137–171); Ndc80c^dwarf mutant titrated.

The next assay deals with T4, Mps1 (Saccharomyces cerevisiae (strain ATCC …, UniProt P54199)).
T4 chain: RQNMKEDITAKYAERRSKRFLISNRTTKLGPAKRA
In words: FP direct, Bodipy peptide, Ndc80c dwarf.

Another assay deals with T5, Ipl1 (Saccharomyces cerevisiae (strain ATCC …, UniProt P38991)).
T5 chain: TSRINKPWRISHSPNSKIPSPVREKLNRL
In words: FP direct, Bodipy peptide, Ndc80c dwarf.

Positions count from the first letter of the chain named. Names and notes keep the numbering of the source. No end group written: not given here. *: point of attachment. BODIPYFLEthylmaleimide = Cc1cc(C)n2c1C=C1C=CC(CCC(=O)NCCN3C(=O)CC(*)C3=O)=[N+]1[B-]2(F)F

Turning to “Ndc80c^dwarf bearing the Nuf2 F8A P9A mutations (from UniProt P40460 1-691; Q04477 1-213; P40014 1-221) (complex)”, the loss of affinity against wild-type Ndc80c^dwarf (logs) in assay [1] turned out to be 2 logs.
As for “Ndc80c^dwarf bearing the Nuf2 N128A mutation (from UniProt P40460 1-691; Q04477 1-213; P40014 1-221) (complex)”, the loss of affinity against wild-type Ndc80c^dwarf (logs) in assay [1] came to 2 logs.
As to “RRKSILHTIRNSIASGARISLGSGAARVVNGPVTC [Dam1 (254–270;290–305)]”, in the assay with Ndc80c^dwarf [2], the “relative affinity of peptides for Ndc80c^dwarf (comparison in words)” value was “nearly the same”.
Still for that read-out and setting: under “TSRINKPWRISHSPNSKIPSPVREKLNRLC [Ipl1 (26–39;45–59)]” stands “bound more weakly than those from Dam1 and Mps1”.

B1: Mps1 (137–171) peptide, unlabeled F156D; L157A; R170S (peptide)
chain: T3 chain with F20D, L21A, R34S
On to B1, for which, in assay [3], the response was 76 mP.

B2: Mps1 F156D L157A peptide (137–171) (peptide)
peptide: T3 chain with F20D, L21A
B2 came in with a rise of Ki against the wild-type Mps1 peptide (logs) with Ndc80c^dwarf [4] of 2 logs.

B3: Mps1 R170S peptide (137–171) (peptide)
peptide: T3 chain with R34S
B3 returned a rise of Ki against the wild-type Mps1 peptide (logs) in the assay with Ndc80c^dwarf [4] of 2 logs.

B4: Bodipy-FL Mps1(137–171) (peptide)
peptide: RQNMKEDITAKYAERRSKRFLISNRTTKLGPAKRAC(BODIPYFLEthylmaleimide)
Turning to B4, binding with Ndc80c^dwarf [5] was put at a Kd of 0.28 µM.

B5: Ndc80c^dwarf, P40460;Q04477;P40014 Nuf2:N128A (protein)
chain 1: T1 chain 1
chain 2: T1 chain 2 with N128A
chain 3: T1 chain 3
chain 4: T1 chain 4
For B5, in the assay with Bodipy-FL Mps1(137–171), the Kd is 7.4 µM.

B6: Ndc80c^dwarf, P40460;Q04477;P40014 Nuf2:F8A; Nuf2:P9A (protein)
chain 1: T1 chain 1
chain 2: T1 chain 2 with F8A, P9A
chain 3: T1 chain 3
chain 4: T1 chain 4
Molecule B6 showed a Kd with Bodipy-FL Mps1(137–171) of 12.5 µM.

B7: Ndc80-Nuf2 (protein)
chain 1: MSRNQDVFPILDLQELVICLQSCDFALATQENISRPTSDYMVTLYKQIIENFMGISVESLLNSSNQETGDGHLQEENENIYLDTLNVLVLNKICFKFFENIGVQDFNMTDLYKPEAQRTQRLLSAVVNYARFREERMFDCNSFILQMESLLGQ
chain 2: RDPRPLRDKNFQSAIQEEIYDYLKKNKFDIETNHPISIKFLKQPTQKGFIIIFKWLYLRLDPGYGFTKSIENEIYQILKNLRYPFLESINKSQISAVGGSNWHKFLGMLHWMVRTNIKLDMCLNKVDRSLINQNTQEITILSQPLKTLDEQDQRQERYELMVEKLLIDYFTESYKSFLKLEDNYEPSMQELKLGFEKFVHIINTD
B7: the Kd with Mps1 was 0.28 µM; with Ipl1 it was 18.8 µM.

B8: Mps1 R151D R152D R155D peptide (137–171) (peptide)
peptide: T3 chain with R15D, R16D, R19D
Molecule B8 registered a rise of Ki against the wild-type Mps1 peptide (logs) in the assay with Ndc80c^dwarf [4] of 2 logs.

Usually Kd stands for the constant that tells how readily two partners part at equilibrium.
